According to patent US20250243286A1 (SIXPEAKS BIO, published 2025):
Where a chain is given by its changes, count along the chain named. Names and notes keep the numbering of the source.

T1: human ActRIIB (human, UniProt Q13705 19-137, limits assumed)
T1 construct: antigen in MSD-SET; also called ACVR2B; ActR2B
T1 sequence: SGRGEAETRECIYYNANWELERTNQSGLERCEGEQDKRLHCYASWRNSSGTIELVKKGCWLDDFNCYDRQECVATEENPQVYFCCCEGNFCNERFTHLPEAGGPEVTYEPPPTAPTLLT

B1: Antibody Hutzelbrot (antibody, V domains shown)
VH: QVQLVQSGAEVKKPGASVKVSCKASGYTFTSSYINWVRQAPGQGLEWMGTINAVSGSTSYAQKFQGRVTMTRDTSISTAYMELSRLRSDDTAVYYCARGGWFDYWGQGTLVTVSS
VL: QSALTQPASVSGSPGQSITISCTGTSSDVGSKNYVNWYQQHPGKAPKLMIYGVSKRQSGVSNRFSGSKSGNTASLTISGLQAEDEADYYCGTFAGGDYYGVFGGGTKLTVL
notes: full-length IgG
B2: Antibody Dürrfloischeggla (antibody, V domains shown)
VH: B1 VH with T74V
VL: B1 VL with K32Y, Y34V, Y51S, Q57E, D97K
notes: full-length IgG
B3: Antibody Hasaschlegel (antibody, V domains shown)
VH: B1 VH
VL: B1 VL with K32Y, N33D, Y51H, Q57E, D97S
notes: full-length IgG
B4: Antibody Ochsauga (antibody, V domains shown)
VH: B1 VH with Y104V
VL: B1 VL with V29I, K32Y, Q57E, D97S
notes: full-length IgG
B5: Antibody Floischbrühsupp (antibody, V domains shown)
VH: B1 VH
VL: B1 VL with K32F, Y51K, Q57E, D97A
notes: full-length IgG
B6: Antibody Pfitzauf (antibody, V domains shown)
VH: B1 VH with A53P
VL: B1 VL with K32G, Q57E, D97K
notes: full-length IgG
B7: Ochsamaulsalat Fab (Fab, V domains shown)
VH: B1 VH
VL: B1 VL with K32R, Q57E
notes: Fab
B8: Antibody Mauldascha (antibody, V domains shown)
VH: B1 VH with A16S, M70I, R72A, T74E, I76T, R85S, D89E
VL: B1 VL with A8R, I18V, K32Y, Q57E, S61P, N62D, D97K
B9: Antibody Krapfa (antibody, V domains shown)
VH: B1 VH with A16S, Y27H, T28K, M70I, R72A, I76T, R85S, D89E
VL: B1 VL with A8R, I18V, Q57E, S61P, N62D, D97K
B10: Antibody Metzelsupp (antibody, V domains shown)
VH: B1 VH with A16S, M70I, R72A, I76T, R85S, D89E
VL: B1 VL with A8R, I18V, K32F, Y51R, Q57E, S61P, N62D, D97A
B11: Antibody Nonnafürzla (antibody, V domains shown)
VH: B1 VH with A16S, M70I, R72A, I76T, R85S, D89E
VL: B1 VL with A8R, I18V, K32Y, Q57D, S61P, N62D, D97K
B12: Antibody Seela (antibody, V domains shown)
VH: B1 VH with A16S, T28K, M70I, R72A, I76T, R85S, D89E
VL: B1 VL with A8R, I18V, L48H, Q57E, S61P, N62D, D97K
B13: Antibody Oierspätzla (antibody, V domains shown)
VH: B1 VH with A16S, A53P, M70I, R72A, I76T, R85S, D89E
VL: B1 VL with A8R, I18V, K32Y, Q57E, S61P, N62D, D97A
B14: Antibody Rauchfloisch (antibody, V domains shown)
VH: B1 VH with A16S, M70I, R72A, I76T, R85S, D89E
VL: B1 VL with A8R, I18V, K32R, Q57E, S61P, N62D
B15: Antibody Schnitzbrot (antibody, V domains shown)
VH: B1 VH with A16S, T28K, M70I, R72A, I76T, R85S, D89E
VL: B1 VL with A8R, I18V, K32Y, Q57D, S61P, N62D, D97K
B16: Antibody Peitscheschdegga (antibody, V domains shown)
VH: B1 VH with A16S, T28K, M70I, R72A, I76T, R85S, D89E
VL: B1 VL with A8R, I18V, Y51H, Q57E, S61P, N62D, D97K
B17: Antibody Hegemark (antibody, V domains shown)
VH: B1 VH with A16S, T28K, M70I, R72A, I76T, R85S, D89E
VL: B1 VL with A8R, I18V, Q57H, S61P, N62D, D97K
B18: Antibody Wiebela (antibody, V domains shown)
VH: B1 VH with A16S, T28K, M70I, R72A, I76T, R85S, D89E
VL: B1 VL with A8R, I18V, Q57E, S61P, N62D, D97K
B19: Antibody Zibebe (antibody, V domains shown)
VH: B1 VH with A16S, T28K, M70I, R72A, T74E, I76T, R85S, D89E
VL: B1 VL with A8R, I18V, K32Y, Q57E, S61P, N62D, D97K
B20: Schwardamaga, Human IgG1-PALALA-YTE (antibody, V domains shown)
VH: B1 VH with A16S, M70I, R72A, I76T, R85S, D89E
VL: B1 VL with A8R, I18V, K32A, L48P, K55R, Q57P, S61P, N62D, D97K
notes: human IgG1 with PA-LALA (L234A/L235A/P329A) and YTE (M252Y/S254T/T256E), EU numbering
B21: Schwardamaga, Mouse IgG2a-PALALA (antibody, V domains shown)
VH: B1 VH with A16S, M70I, R72A, I76T, R85S, D89E
VL: B1 VL with A8R, I18V, K32A, L48P, K55R, Q57P, S61P, N62D, D97K
notes: mouse IgG2a constant region with PALALA
B22: Schwardamaga, Human IgG1-PALALA (antibody, V domains shown)
VH: B1 VH with A16S, M70I, R72A, I76T, R85S, D89E
VL: B1 VL with A8R, I18V, K32A, L48P, K55R, Q57P, S61P, N62D, D97K
notes: human IgG1 with PA-LALA (L234A/L235A/P329A), EU numbering
B23: Soidawürstle, Human IgG1-PALALA (antibody, V domains shown)
VH: B1 VH with K12R, A16S, A53P, M70I, R72A, I76T, R85S, D89E
VL: B1 VL with A8R, I18V, K32Y, Y34R, Q57E, S61P, N62D, D97R
notes: as for B22
B24: Ofaschlupfer, Human IgG1-PALALA-YTE (antibody, V domains shown)
VH: B1 VH with A16S, M70I, R72A, I76T, R85S, D89E
VL: B1 VL with A8R, I18V, Q57E, S61P, N62D, D97K
notes: as for B20
B25: Ofaschlupfer, Mouse IgG2a-PALALA (antibody, V domains shown)
VH: B1 VH with A16S, M70I, R72A, I76T, R85S, D89E
VL: B1 VL with A8R, I18V, Q57E, S61P, N62D, D97K
notes: as for B21
B26: Ofaschlupfer, Human IgG1-PALALA (antibody, V domains shown)
VH: B1 VH with A16S, M70I, R72A, I76T, R85S, D89E
VL: B1 VL with A8R, I18V, Q57E, S61P, N62D, D97K
notes: as for B22

These binders were tested against T2, human ActRIIA (human, UniProt P27037 20-135, limits assumed) (assay: MSD-SET).
T2 construct: antigen in MSD-SET; also called ACVR2A; ActR2A
T2 sequence (P27037 20-135 limits assumed): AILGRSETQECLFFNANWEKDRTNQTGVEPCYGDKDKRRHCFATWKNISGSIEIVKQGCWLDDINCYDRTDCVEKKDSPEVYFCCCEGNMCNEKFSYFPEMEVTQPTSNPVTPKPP

Binder | Kd [nM]
B1 | 0.021
B2 | 0.033
B3 | 0.018
B4 | 0.016
B5 | 0.023
B6 | 0.052

The binders below were run against T1, human ActRIIB (assay: MSD-SET).

Binder | Kd [nM]
B1 | 0.01
B2 | 0.009
B3 | 0.013
B4 | 0.006
B5 | 0.01
B6 | 0.008

These binders were tested against T3, ActRIIA and ActRIIB (on TGFB/SMAD SBE Reporter HEK293 cells) (human) (assay: cell-based or functional assay).

Binder | IC50, Activin SMAD RGA [nM] | IC50, Myostatin SMAD RGA [nM] | IC90, Activin SMAD RGA [nM] | IC90, Myostatin SMAD RGA [nM]
B1 | 0.422 | 0.73 | 3.62 | 3.06
B2 | 0.423 | 0.679 | 4.86 | 6.09
B3 | 0.722 | 0.977 | 5.56 | 6.59
B4 | 0.238 | 0.327 | 3.15 | 2.21
B5 | 0.324 | 0.394 | 4.69 | 2.62
B6 | 0.231 | 0.0984 | 3.03 | 1.35

Biological target: T3, ActRIIA and ActRIIB (on TGFB/SMAD SBE …)
Test: cell-based or functional assay
Remark: another data set of the same source

Binder | IC50, Activin SMAD RGA [nM] | IC50, Myostatin SMAD RGA [nM]
B7 | 1.5 | 2.32

Biological target: T3, ActRIIA and ActRIIB (on TGFB/SMAD SBE …)
Test: cell-based or functional assay
Remark: another data set of the same source

Binder | IC50, Activin SMAD RGA [nM] | IC50, Myostatin SMAD RGA [nM] | IC90, Activin SMAD RGA [nM] | IC90, Myostatin SMAD RGA [nM]
B8 | 1.83 | 1.42 | 6.72 | 13.4
B9 | – | 0.0497 | – | 10400
B10 | 0.573 | 0.713 | 3.79 | 7.72
B11 | 0.505 | 1.32 | 3.81 | 27.3
B12 | 0.338 | 0.473 | 4.74 | 18.2
B13 | 0.361 | 0.96 | 3.06 | 16.8
B14 | 0.668 | 1.31 | 5.11 | 18.2
B15 | 0.312 | 0.624 | 2.52 | 19.1
B16 | 0.299 | 2.84 | 4.92 | 48.4
B17 | 0.304 | 0.516 | 4.37 | 23.4
B18 | 0.253 | 0.25 | 3.96 | 14.8
B19 | 0.542 | 1.46 | 7.83 | 19

Biological target: T2, human ActRIIA
Test: MSD-SET
Remark: another data set of the same source

Binder | Kd [nM]
B7 | 0.055

Biological target: T1, human ActRIIB
Test: MSD-SET
Remark: another data set of the same source

Binder | Kd [nM]
B7 | 0.062

Biological target: T2, human ActRIIA
Test: MSD-SET
Remark: another data set of the same source

Binder | Kd [nM]
B20 | 0.04
B21 | 0.039
B22 | 0.036
B23 | 0.025

Biological target: T1, human ActRIIB
Test: MSD-SET
Remark: another data set of the same source

Binder | Kd [nM]
B24 | 0.003
B25 | 0.004
B26 | 0.003
B20 | 0.013
B21 | 0.016
B22 | 0.011
B23 | 0.006
